Experimental data published in article PMC6123631.

How the values were obtained:
[1] = molecular target: T1, FtFur WT (Francisella tularensis FSC198 (100% …, UniProt Q5NIN6 1-140)); assay: EMSA; 10 uM Mn2+; main species one dimer bound; conditions: protein: recombinant; tags: none; chain copies: 4; label: 32P 5' end (EMSA)
[2] = molecular target: T1, FtFur WT; assay: SEC-MALLS-RI; conditions: protein: recombinant; tags: none; chain copies: 4; label: none (SEC-MALLS, SAXS)
[3] = molecular target: T1, FtFur WT; assay: EMSA; conditions: protein: recombinant; tags: none; chain copies: 4; label: 32P 5' end (EMSA)

B1: PfigAS (dsDNA)
DNA 1: GGGGATAATGATAACGAATATCATTATCGGG
DNA 2: CCCGATAATGATATTCGTTATCATTATCCCC
- binding result [1]: binds

B2: FurBox (EcFurBox) (dsDNA)
DNA 1: GGGGATAATGATAATCATTATCGGG
DNA 2: CCCGATAATGATTATCATTATCCCC
- binding result [2]: binds

B3: PfigAL (PfigA, 43 bp) (dsDNA)
DNA 1: GGGCTACATGATAATGATAACGAATATCATTATCGTTTATGGG
DNA 2: CCCATAAACGATAATGATATTCGTTATCATTATCATGTAGCCC
- Kd [3]: ~5 nM
